Publication PMC3337841

Biological target: FRET-GATE-16 (human) (UniProt P60520)
Sequence (P60520 whole entry): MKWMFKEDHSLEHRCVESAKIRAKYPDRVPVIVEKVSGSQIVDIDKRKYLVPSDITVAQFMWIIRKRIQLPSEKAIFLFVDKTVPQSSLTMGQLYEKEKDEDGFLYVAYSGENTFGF

catalytic efficiency (kcat/KM) of cleavage, FRET-based assay, 37°C, Buffer B: 1310 mol^−1S^−1
Substance: Atg4A (from UniProt Q8WYN0 1-398) (enzyme)
